Source: US20260242472A1 (SANYOU BIOPHARMACEUTICALS, published 2026)
Values belong to the binder of their own block, whether it stands above or below them.

Tests used:
[1] = biological target: T1, H2C-scFv-LH (human); assay: SPR (Biacore T200), antigen amine-coupled to about 75 RU, antibody 4 and 20 nM, 1:1 Langmuir fit
T1 construct: also called control antibody H2C-scFv-LH; parent antibody
Protocol: Protein coupling: The huCD3E-AA1-27-huFc protein produced in example 1.2 was diluted to 5.8 μg/mL with an NaAc buffer at pH 4.5. The flow rate was set to 10 μL/min. The chip was activated with a mixture of 1-ethyl-(3-dimethylaminopropyl)carbodiimide (EDC) and N-hydroxysuccinimide (NHS) for the default time of 420 s. The antigen protein huCD3E AA1-27-huFc was immobilized to a level of approximately 75 RU using a coupling mode with a preset coupling amount. The activated groups not bound to the test sample were blocked with ethanolamine.
Sample test condition: A PBS buffer (pH 7.4) containing 0.05% Tween-20 was used as a running buffer, and the running buffer was used as a control antibody test sample. A series of antibody concentrations (4 nM, 20 nM) were set. During sample analysis, the flow rate was set to 30 μL/min, the binding time was 180 s, and the dissociation time was 300 s. After dissociation was completed, regeneration was performed with 10 mM Gly-HCl (pH 2.0) for 20 s to completely remove antibody bound to the antigen.
Parameter fitting: The experiment was run in multiple cycles, with the response signal plotted against analysis time on the abscissa and response value on the ordinate. After dual-reference subtraction, the obtained data were fitted by BIAcore T200 analysis software. The fitting model used was a 1:1 Langmuir binding model, so as to determine affinity indicators such as the binding dissociation constant.

[2] = biological target: T1, H2C-scFv-LH; assay: BLI (Gator), biotinylated antigen on SA probe, antibody 0.62-40 nM
Protocol: (§1) Protein biotinylation: The antigen protein huCD3E AA1-27-huFc was diluted to a final concentration of 1 mg/mL, premixed with biotin and reacted at 4° C. for 1 h, and then unreacted free biotin was removed by filtration with an ultrafiltration tube to obtain biotinylated huCD3E AA1-27-huFc (hereinafter referred to as huCD3E-AA1-27-huFc-Biotin).
(§2) In the dark, the sensor was pre-wetted with Q Buffer (SA Probes, ProbeLife). After 10 min, the sample plate (Greiner, 655209) was tested. After the test was correct, the preset procedure was followed. First, antigen binding was performed for 600 s. After the binding was completed and equilibration was continued in Q Buffer for 30 s, the sensor bound to the antigen huCD3E-AA1-27-huFc-Biotin was transferred to different concentrations of antibody dilutions for binding for 120 s, and then transferred to Q Buffer for dissociation for 180 s. Finally, KD, Ka and Kd were obtained by fitting the binding and dissociation data of different concentrations of antigens and antibodies.

[3] = biological target: T2, 63-scFv-LH (human); assay: as above
T2 construct: scFv-Fc
Protocol: as §1, §2

[4] = biological target: T3, 79-scFv-LH (human); assay: as above
T3 construct: scFv-Fc
Protocol: as §1, §2

Kd [1]: 0.0596 nM
koff [1]: 0.000165 s⁻¹
kon [1]: 2.77e+06 M⁻¹ s⁻¹
B1: huCD3E-AA1-27-huFc (Fc fusion)
chain: QDGNEEMGGITQTPYKVSISGTTVILTTHTCPPCPAPELLGGPSVFLFPPKPKDTLMISRTPEVTCVVVDVSHEDPQVKFNWYVDGVQVHNAKTKPREQQYNSTYRVVSVLTVLHQNWLDGKEYKCKVSNKALPAPIEKTISKAKGQPREPQVYTLPPSREEMTKNQVSLTCLVKGFYPSDIAVEWESNGQPENNYKTTPPVLDSDGSFFLYSKLTVDKSRWQQGNVFSCSVMHEALHNHYTQKSLSLSPGK
notes: Made in HEK293 cells, purified on Protein A/G. No linker between the two parts is mentioned; also called antigen protein

Kd [2]: 0.318 nM
koff [2]: 0.000327 s⁻¹
kon [2]: 1.03e+06 M⁻¹ s⁻¹
Kd [3]: 0.358 nM
koff [3]: 0.000428 s⁻¹
kon [3]: 1.19e+06 M⁻¹ s⁻¹
Kd [4]: 0.222 nM
koff [4]: 0.000184 s⁻¹
kon [4]: 826000 M⁻¹ s⁻¹
B2: huCD3E-AA1-27-huFc-Biotin (Fc fusion)
chain: B1 chain
modifications: biotinylated (sites not given)
notes: also called biotinylated huCD3E AA1-27-huFc
